Assay results from patent US20150368642A1, “LNA OLIGONUCLEOTIDE CARBOHYDRATE CONJUGATES” (HOFFMANN-LA ROCHE INC., priority 2013, published 2015).
Strand notation (5' to 3'): a small letter for the sugar, then the base; units joined by * are phosphorothioate-linked, units joined directly phosphodiester-linked; [ ] holds rarer units or linkages, { } end groups; capitals alone tell only the bases. l = locked nucleic acid (LNA); [5mC] = 5-methylcytosine; d = 2'-deoxy (DNA)

Tests used:
[1] = In vitro cleavage in kidney homogenate; type: in vitro ADME, NMRI mice; settings: 200 μg/g tissue, 24 hours at 37°
Procedure: (§1) Liver, kidney and serum (see table below) were spiked with oligonucleotide SEQ ID NO 21 to concentrations of 200 μg/g tissue. Liver and kidney samples collected from NMRI mice were homogenized in a homogenisation buffer (0.5% Igepal CA-630, 25 mM Tris pH 8.0, 100 mM NaCl, pH 8.0 (adjusted with 1 N NaOH). The homogenates were incubated for 24 hours at 37° and thereafter the homogenates were extracted with phenol-chloroform. The content of cleaved and non cleaved oligonucleotide in the extract from liver and kidney and from the serum were determined against a standard using the above HPLC method.

[2] = In vitro cleavage in serum; type: in vitro ADME; settings: 200 μg/g
Procedure: as §1

[3] = In vitro cleavage in liver homogenate; type: in vitro ADME, NMRI mice; settings: 200 μg/g tissue, 24 hours at 37°
Procedure: as §1

HBV [4] = settings: WO2011/47312; cited from earlier work
HBV [5] = assay: HBV mouse hydrodynamic tailvein injection model, HBV DNA in liver by qPCR; type: in vivo, Balb/C mouse; settings: Balb/C mice, single injection 24 hours before hydrodynamic injection; SEQ ID 55 2 and 10 mg/kg, SEQ ID 56 2.7 and 13.5 mg/kg
Source text: An LNA oligomer can be assessed for antiviral effect in vivo in a mouse strain, such as BALB/c or C57B/6, where HBV replication can be established by hydrodynamic tail vein injection of a plasmid, such as pAAV/HBV1.3, expressing a partially repeated HBV pregenomic RNA (J Virol. 1995 October; 69(10):6158-69) or pAAV2/HBV1.3, a derivative thereof (WuxiAppTech, Wuxi, China). The injection of the plasmid in a high volume of saline, equal to 8-12% of the body mass of the mouse, will result in the accumulation and expression of the viral pregenomic RNA in the liver, subsequently leading to the establishment of an acute HBV infection. Treatment of the animals with an LNA oligomer can be initiated 1 or more days before the injection of the plasmid or 1 day after the injection of the plasmid. Delivery of the LNA oligomer in saline can be done by intravenous or subcutaneous injection.
An in vivo experiment was performed on SEQ ID 55 and SEQ ID 56, the latter being a GalNAC conjugate of the former (conj1a). The LNA compounds were tested for efficacy against HBV in the mouse hydrodynamic tailvein injection model using the Balb/C mouse strain. LNA compounds were be tested at equimolar doses; 2 and 10 mg/kg, single injection (SEQ ID 55) and at 2.7 and 13.5 mg/kg, single injection (SEQ ID 56). The LNA anti-HBV compounds were compared to saline and to entecavir, an inhibitor of the HBV reverse transcriptase. Entecavir was dosed p.o. daily at 0.1 mg/kg. Where applicable, the animals were treated with the LNA compound 24 hours before the hydrodynamic injection. Entecavir was given in daily doses as described starting 24 hours after the hydrodynamic injection. […] All the animals were monitored on a daily basis for body weight changes and clinical signs for the duration of the in vivo study. […] All the blood samples were collected in tubes containing heparin sodium The portion of the left lobe of each liver was used to determine the level of HBV DNA replication by qPCR, as copies per unit weight of liver in which the quantity of total HBV DNA level is subtracted by the quantity of pAAV2/HBV DNA level. […]

Substance	% cleaved after 24 hrs kidney homogenate [1]	% cleaved after 24 hours in serum [2]	% cleaved after 24 hrs liver homogenate [3]	effectiveness against HBV as highlighted in the art (HBV [4])	effect on replication of HBV / HBV DNA level in the liver (HBV [5])
21 (TCAGCATTGGTATTCA; LNA gapmer conjugate, pattern not given here) [compound 21]	95%	0%	83%		
SEQ ID NO 55: 5′-GsAsGsGscsastsasgscsasgs^mCsAsGsG-3′; HBV LNA gapmer disclosed in WO2011/47312 (lG*lA*lG*lG*dC*dA*dT*dA*dG*dC*dA*dG*l[5mC]*lA*lG*lG) [reference compound]				particularly effective against HBV	little effect on the replication of HBV in the liver
